This test deals with dUltramarine2. As to the kind of experiment: SEC; gel filtration chromatography; conditions not given in the main text (Supplementary Fig. 7). Background: SEC sorts molecules by how far they enter the pores of the column.

This is an account of results in publication PMC4772073.

What is called stoichiometry N is a count of units in the complex or per binding partner.

Substance dUltramarine2 yielded a stoichiometry N of 2.
